Measurements published in patent publication US20130177556.
Read-outs that look alike come from different tables or passages of the source.

Assays:
[1] = target: EGFR extracellular domain (EC-EGFR) (Homo sapiens) (UniProt P00533); assay: filter; conditions: 2'-F pyrimidines (all C and U); PBS, 0.01% BSA, 37 C, 15 min; scrambled background subtracted
[2] = target: EGFR on A549 cells (Homo sapiens) (UniProt P00533); assay: cell_activity; conditions: 2'-F pyrimidines (all C and U); inhibition of EGF-dependent EGFR phosphorylation in A549, 200 nM aptamer
[3] = target: EGFR on A549 cells (Homo sapiens) (UniProt P00533)

Row | Sequence | Kd [1] [µM] | activity [2] [% inhibition] | Kd ([3]; 2'-F pyrimidines (all C and U), binding to whole A549 cells, radiolabelled aptamer) [µM] | Kd ([3]; 2'-F pyrimidines, Kd stated for full-length CL4, whole A549 cells implied) [µM]
1 | GCCUUAGUAACGUGCUUUGAUGUCGAUUCGACAGGAGGC [CL4 42-81] | 0.01 | 60 | 0.038 | –
2 | GGGAGACAAGAAUAAACGCUCAACGACACGUUGCCAGCCGGAGCCUUAGUAACGUGCUUUGAUGUCGAUUCGACAGGAGGCUCACAACAGGC [CL4] | – | – | – | 0.046
